From doi:10.1101/2021.12.16.473085 (2021) come the findings set out here.

Targets include hGH Q46R; hGH E65Y; hGH R178Y; hGH S51D; hGH Q22H; hGH R178F; hGH K41R.
Common to all, as to test: SPR

B1: human Growth Hormone Receptor (hGHR) (receptor)
chain: FSGSEATAAILSRAPWSLQSVNPGLKTNSSKEPKFTKCRSPERETFSCHWTDEVHHGTKNLGPIQLFYTRRNTQEWTQEWKECPDYVSAGENSCYFNSSFTSIWIPYCIKLTSNGGTVDEKCFSVDEIVQPDPPIALNWTLLNVSLTGIHADIQVRWEAPRNADIQKGWMVLEYELQYKEVNETKWKMMDPILTTSVPVYSLKVDKEYEVRVRSKQRNSGNYGEFSEVLYVTLPQMSQFTCEEDFYFPWLLIIIFGIFGLTVMLFVFLFSKQQRIKMLILPPVPVPKIKGIDPDLLKEGKLEEVNTILAIHDSYKPEFHSDDSWVEFIELDIDEPDEKTEESDTDRLLSSDHEKSHSNLGVKDGDSGRTSCCEPDILETDFNANDIHEGTSEVAQPQRLKGEADLLCLDQKNQNNSPYHDACPATQQPSVIQAEKNKPQPLPTEGAESTHQAAHIQLSNPSSLSNIDFYAQVSDITPAGSVVLSPGQKNKAGMSQCDMHPEMVSLCQENFLMDNAYFCEADAKKCIPVAPHIKVESHIQPSLNQEDIYITTESLTTAAGRPGTGEHVPGSEMPVPDYTSIHIVQSPQGLILNATALPLPDKEFLSSCGYVSTDQLNKIMP
With B1, the Kd was found to be 40 nM with hGH Q46R; 0.4 nM with hGH E65Y; 20 nM in the test with hGH R178Y; 0.6 nM in the test with hGH S51D; 8 nM in the test with hGH Q22H; 30 nM with hGH R178F. In addition, in the test with hGH K41R, the Kd was 20 nM. Further, the off-rate (koff) is 0.0006 s⁻¹ in the test with hGH Q46R; 0.0003 s⁻¹ in the test with hGH E65Y; 0.006 s⁻¹ in the test with hGH R178Y; 0.0007 s⁻¹ with hGH S51D; 0.0004 s⁻¹ in the test with hGH Q22H; 0.008 s⁻¹ in the test with hGH R178F. The koff with hGH K41R amounted to 0.001 s⁻¹.
